One block for each binder: values may come before it.
What was measured:
[1] = target: T1, human 5T4 on cells (human) (UniProt Q13641); test: FACS on NCI-H226 cells (endogenous 5T4)
T1 sequence (looked up): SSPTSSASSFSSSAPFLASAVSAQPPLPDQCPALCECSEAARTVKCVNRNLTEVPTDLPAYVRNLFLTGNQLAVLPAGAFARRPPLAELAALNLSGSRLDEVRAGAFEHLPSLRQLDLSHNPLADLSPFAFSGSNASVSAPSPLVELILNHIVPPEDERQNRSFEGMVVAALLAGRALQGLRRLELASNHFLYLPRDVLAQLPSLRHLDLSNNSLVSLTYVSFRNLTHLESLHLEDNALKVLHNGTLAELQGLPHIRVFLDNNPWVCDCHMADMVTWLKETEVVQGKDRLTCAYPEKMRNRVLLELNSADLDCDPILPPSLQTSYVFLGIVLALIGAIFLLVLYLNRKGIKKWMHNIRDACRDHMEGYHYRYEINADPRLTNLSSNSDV

[2] = target: T1, human 5T4 on cells (human); test: FACS on CHO cells over expressing 5T4
[3] = target: T1, human 5T4 on cells (human); test: FACS, NCI-H226 cells
[4] = target: T2, h5T4-His (cat #19845-H08H, Sino Biological) (human) (UniProt Q13641); test: ELISA, coated h5T4-His
T2 sequence (looked up): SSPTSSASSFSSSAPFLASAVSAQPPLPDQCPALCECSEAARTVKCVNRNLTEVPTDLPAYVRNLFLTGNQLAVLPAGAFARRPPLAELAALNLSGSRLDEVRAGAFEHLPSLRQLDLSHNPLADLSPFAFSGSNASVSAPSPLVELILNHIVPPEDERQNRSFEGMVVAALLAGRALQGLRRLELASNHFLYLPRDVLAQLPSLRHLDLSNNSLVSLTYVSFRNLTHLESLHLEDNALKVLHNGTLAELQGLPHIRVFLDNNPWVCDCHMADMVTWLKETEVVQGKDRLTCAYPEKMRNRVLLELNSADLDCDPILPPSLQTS

[5] = target: T1, human 5T4 on cells (human); test: FACS, CHO cells over expressing human 5T4
[6] = target: T1, human 5T4 on cells (human); test: cell-based or functional assay

EC50 [1]: 1.24 nM
EC50 [2]: 1.4 nM
B1: IM-1178 Tribody (CD3x5T4_IM24xNKG2D) (protein, part only; not given: anti-CD3 Fab, anti-NKG2D scFv, linkers, not shown: another chain or arm of the molecule; small tags and cut ends)
VH: QVQLVQSGAEVKKPGASVKLTCTASGYTFTAYYMHWMRQAPGQGLEWMGIVLPGRGSTNYAQKFQGRVTVTRDTSTNTVYMELNSLTSEDTAVYYCVRGYRDFDYWGPGTLVTVSS
VL: ELVLTQSPATLSLSPGERATLSCKASQNVGTAVAWYQQKPGQAPRLLIYSASNRYTGIPARFSGSGSGTDFTLTVSSLEPEDFAVYYCQQYTSYPRTFGQGTKVEIK

EC50 (read off the curve) [3]: 6 nM
EC50 (read off the curve) [4]: 40 nM
EC50 (read off the curve) [5]: 3 nM
B2: CD3X5T4_cl-16XNKG2A (protein, part only; not given: anti-CD3 Fab, anti-NKG2A scFv, linkers, not shown: another chain or arm of the molecule; small tags and cut ends)
VH: AVQLQQSGPVRVKPGASVKMSCKASGYPFTDYYMNWVKQSHGRSLDWIGVFNPYNGDTRYTQKFKDKATLTIDKSSSTAYMELNSLTSEDSAVYYCARLRLLYDTSEYYVMDYWGQGTSVTVSS
VL: ENVLTQSPAIMSASPGEKVTMTCSASSSVNYMHWYQQKSNTSPKLWIYDTSKLASGVPGRFSGSGSGNSYSLTISSMEAEDVATYFCFQGSGYPYTFGGGTKLEIK

EC50 [1]: 3.9 nM
EC50 [2]: 2.3 nM
B3: IM-1222 Tribody (5T4_IM53-CD3-NKG2A) (protein, part only; not given: anti-CD3 Fab, anti-NKG2A scFv, linkers, not shown: another chain or arm of the molecule; small tags and cut ends)
VH: QVQLVQSGAEVKKPGASVKVSCKASGYTFTDYYMNWVRQAPGRGLEWMGVFNPYNGDTRYTQKFKDRVTMTIDKSISTAYMELSRLRSDDTAVYYCARLRLLYDTSEYYVMDYWGQGTTVTVSS
VL: ENVLTQSPATLSLSPGERATLSCSASSSVNYMHWYQQKPGQSPRLLIYDTSKLASGIPARFSGSGSGTDYTLTISSLEPEDFAVYFCFQGSGYPYTFGGGTKVEIK
T cells mediated cytotoxicity (lactate dehydrogenase assay), EC50 [6]: 0.02 nM

EC50 (read off the curve) [5]: 5 nM
B4: CD3x5T4-IM51xNKG2A (protein, part only; not given: anti-CD3 Fab, anti-NKG2A scFv, linkers, not shown: another chain or arm of the molecule; small tags and cut ends)
VH: QVQLVQSGAEVKKPGASVKVSCKASGYTFTDYYMNWVRQAPGQGLEWMGVFNPYNGDTRYTQKFKDRVTMTRDTSISTAYMELSRLRSDDTAVYYCARLRLLYDTSEYYVMDYWGQGTTVTVSS
VL: ENVLTQSPATLSLSPGERATLSCSASSSVNYMHWYQQKPGQSPRLLIYDTSKLASGIPARFSGSGSGTDYTLTISSLEPEDFAVYFCFQGSGYPYTFGGGTKVEIK

EC50 (read off the curve) [5]: 5 nM
B5: CD3x5T4-IM50xNKG2A (protein, part only; not given: anti-CD3 Fab, anti-NKG2A scFv, linkers, not shown: another chain or arm of the molecule; small tags and cut ends)
VH: QVQLVQSGAEVKKPGASVKVSCKASGYPFTDYYMNWVRQAPGRGLEWIGVFNPYNGDTRYTQKFKDKATLTIDKSISTAYMELNRLRSDDTAVYYCARLRLLYDTSEYYVMDYWGQGTTVTVSS
VL: ENVLTQSPATLSLSPGERATLSCSASSSVNYMHWYQQKPGQAPRLLIYDTSKLASGIPARFSGSGSGTDYTLTISSLEPEDFAVYYCFQGSGYPYTFGGGTKVEIK

EC50 (read off the curve) [5]: 6 nM
B6: CD3x5T4-IM34xNKG2A (protein, part only; not given: anti-CD3 Fab, anti-NKG2A scFv, linkers, not shown: another chain or arm of the molecule; small tags and cut ends)
VH: AVQLVQSGAEVKKPGASVKVSCKASGYTFTDYYMNWVRQAPGQGLEWMGVFNPYNGDTRYTQKFKDKVTMTIDKSTSTVYMELNSLRSEDTAVYYCARLRLLYDTSEYYVMDYWGQGTTVTVSS
VL: ENVLTQSPATLSLSPGERATLSCSASSSVNYMHWYQQKPGQAPRLLIYDTSKLASGIPARFSGSGSGNDFTLTISSLEPEDFAVYYCFQGSGYPYTFGGGTKVEIK

EC50 (read off the curve) [5]: 5 nM
B7: CD3x5T4-IM49xNKG2A (protein, part only; not given: anti-CD3 Fab, anti-NKG2A scFv, linkers, not shown: another chain or arm of the molecule; small tags and cut ends)
VH: QVQLVQSGAEVKKPGASVKVSCKASGYTFTDYYMNWVRQAPGRGLEWIGVFNPYNGDTRYTQKFKDRATLTIDKSISTAYMELSRLRSDDTAVYYCARLRLLYDTSEYYVMDYWGQGTTVTVS
VL: ENVLTQSPATLSLSPGERATLSCSASSSVNYMHWYQQKPGQAPRLLIYDTSKLASGIPARFSGSGSGTDYTLTISSLEPEDFAVYYCFQGSGYPYTFGGGTKVEIK
